The target in this assay is CMV peptide 495-503 (pp65) presented on target cells (CMV) (UniProt P06725).

Substance “CD8+ T cells educated against pp65 peptide in the IVE assay (untreated) (cells without a defined receptor)” registered a lysis in the chromium release assay above 50%.
